± gives the standard deviation.
Assay: protein stability index of a GFP-peptide fusion (GPS, HEK-293T) (PSI 1-6); higher = more stable
[1] = treatment: DMSO, c terminus: a fixed tail appended
[2] = treatment: MLN4924 1 uM, 8 h, c terminus: a fixed tail appended
[3] = treatment: DMSO, c terminus: native
[4] = treatment: MLN4924 1 uM, 8 h, c terminus: native
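Note: 24-mer peptide tiles fused after GFP, lentivirally expressed, FACS-sorted into six equal bins by GFP/DsRed ratio, decoded by Illumina sequencing, PSI is the read-weighted mean bin number.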

Row | Sequence | protein stability index [1] | protein stability index [2] | protein stability index [3] | protein stability index [4]
1 | GVQKMNSKTVTSTMLGVFREDPKT [GCH1] | 4.43 ± 0.45 | 4.05 ± 0.33 | – | –
2 | GTPGTPSYPRTPHTPGTPKSAILV [MAP2] | 3.1 ± 0.12 | 3.24 ± 0.35 | – | –
3 | QVLPDSESLPRSEIDEKVTDLVQF [MAGEA10] | 5.03 ± 0.3 | 4.99 ± 0.35 | – | –
4 | LRSRASRCRPRSLIDYKSYMDTKL [FAM189A2] | 2.3 ± 0.28 | 2.19 ± 0.23 | – | –
5 | GKVEAQHILASAPTDRNLCHFQAL [PYCR3] | 2.7 ± 0.25 | 3.04 ± 0.31 | – | –
6 | TYGWTANMERIMKAQALRDNSTMG [HSP90AB1] | 2.87 ± 0.24 | 3.31 ± 0.3 | – | –
7 | GEGVERELFVREPTGRLPALVRWW [MYORG] | 2.91 ± 0.075 | 2.77 ± 0.34 | – | –
8 | DRQELTYQELLRVCCCELGVNPDQ [ANKRD40] | 3.24 ± 0.24 | 3.34 ± 0.36 | – | –
9 | RELGRLRQQVTNHGRGTEVLLEEP [ZNF263] | 4.7 ± 0.39 | 4.58 ± 0.33 | – | –
10 | ATVWSSNVGRVHRVAKKLQSGLVW [ALDH8A1] | 2.81 ± 0.87 | 2.24 ± 0.96 | – | –
11 | PLPAGVPPLEDFEVLDGVEDAEGE [FKBP8] | 5.64 ± 0.26 | 5.44 ± 0.46 | – | –
12 | ELKPEDKDPRDPEESKEPKEEKQR [GNAS] | 5.22 ± 0.48 | 5.7 ± 0.3 | – | –
13 | WVSHTAAMTGTFPAYGMSPSLSTI [DVL3] | 2.62 ± 0.34 | 2.29 ± 0.26 | – | –
14 | QAWVQKHHPENGEETVTMLEDVER [ZNF396] | 5.1 ± 0.32 | 5.39 ± 0.17 | – | –
15 | DKEGPSPKVEYVWRNIILMSLLHL [SCD] | 3.11 ± 0.69 | 3.12 ± 0.4 | – | –
16 | VYNANINLFCVLRLVVEFPATGGA [PKD2L1] | 3.05 ± 0.41 | 3.13 ± 0.71 | – | –
17 | AKVESMDQEIKFFRCLFEAEITQI [KRT71] | 2.01 ± 0.51 | 2.19 ± 0.15 | – | –
18 | GVLEAPDTQVNPVGSVSVDCGPSR [FBXO34] | 5.03 ± 0.31 | 4.89 ± 0.6 | – | –
19 | TSITLTASRVSKVNDKRRKKSGEK [KMT2E] | 4.04 ± 0.28 | 4.47 ± 0.17 | – | –
20 | KECKDRGFEYDGKINAWDLYYYMT [NLN] | 2.52 ± 0.3 | 2.16 ± 0.29 | – | –
21 | NVISELNIEDYFSHHLAVYNSPQF [FBXO39] | 2.31 ± 0.29 | 2.32 ± 0.34 | – | –
22 | RDLLGALKHWRRAMELRHQGGEYL [FEM1A] | 2.46 ± 0.2 | 2.5 ± 0.45 | – | –
23 | DVVRSLLRRGASVNRTTRTNSTPL [FEM1A] | 2.75 ± 0.29 | 2.65 ± 0.27 | – | –

Row | Sequence | protein stability index [1] | protein stability index [2] | protein stability index [3] | protein stability index [4]
24 | WEHRTRVGRLYAVYDQAVSIFYDL [SMAD6] | 2.52 ± 0.66 | 2.59 ± 0.47 | – | –
25 | HGHYSMHCLHSAGHSQPDGAYSSA [DLX1] | 3.48 ± 0.27 | 3.47 ± 0.23 | – | –
26 | MAAQRNRSKESKDCSGLVLLCLFF [PCDHGA10] | 2.29 ± 0.27 | 1.83 ± 0.32 | – | –
27 | FSFKVSRWMGLACFRSLAASSPSI [CCDC70] | 2.2 ± 0.34 | 2.63 ± 0.53 | – | –
28 | AIWDDTDSMYGECRTYIIHYYLMD [EFHC1] | 2.83 ± 0.52 | 2.67 ± 0.64 | – | –
29 | LTTEKQNFLLFDMTTHPLTNNNIK [GOLPH3] | 2.98 ± 0.18 | 3.09 ± 0.17 | – | –
30 | EVTLEANPTSAPGSRLAEFGAAGV [RSAD1] | 4.21 ± 0.13 | 4.25 ± 0.24 | – | –
31 | ERLYVIGGNHFRGTSDYDDVLSCE [KLHL13] | 3.28 ± 0.19 | 3.35 ± 0.18 | – | –
32 | AFTEYVHAYFRGHSPSCLARVTGE [FCHO1] | 2.1 ± 0.28 | 2.22 ± 0.25 | – | –
33 | GRNFILFIIFGTMEEMQNKAVVFF [HACD3] | 2.94 ± 1.4 | 2.36 ± 1.2 | – | –
34 | WVLEPVLEGWRPDQLYRRKKDNHA [ELOA2] | 2.51 ± 0.31 | 3.34 ± 0.14 | – | –
35 | RAGVQWKFAGSFYFAITVITTIGY [KCNK9] | 3.03 ± 0.064 | 3.11 ± 0.4 | – | –
36 | CINIPGSYVCRCKQGYILNSDQTT [MATN2] | 2.43 ± 0.17 | 2.4 ± 0.35 | – | –
37 | GEITQHNVTELLRDVAAWGRARAT [DNAAF3] | 3.11 ± 0.35 | 3.53 ± 0.5 | – | –
38 | GKHPKDKTEDENKQSFLDGGKGHH [TOR1AIP2] | 5.4 ± 0.34 | 5.55 ± 0.22 | – | –
39 | TFFCTNATIHGAIRLVCSRGNRLK [SCNN1D] | 2.54 ± 0.27 | 2.41 ± 0.41 | – | –
40 | MSLFSLYMVQDQHECILPFVQVKG [M1AP] | 2.43 ± 0.54 | 2.14 ± 0.56 | – | –
41 | SFSRPADLDLIQSTPFKPLALKTP [MFF] | 3.19 ± 0.46 | 3.5 ± 0.048 | – | –
42 | ESVDEAGGSGPAGLRASTSDGILR [RHOBTB2] | 5.14 ± 0.21 | 5.16 ± 0.2 | – | –
43 | ETVGGAILDQTTSEDAVGGATLGQ [HDAC6] | 5.29 ± 0.25 | 5.62 ± 0.25 | – | –
44 | KSEGLSGRVLRKLPFLAHALYVQA [TRIP13] | 2.3 ± 0.58 | 2.13 ± 0.42 | – | –
45 | CPLTPGPGKALGPAATMAVELHYE [C2CD2L] | 3.67 ± 0.14 | 3.76 ± 0.28 | – | –
46 | KPYTCSVCGKSFSRTTCLFLHLRT [ZNF8] | 2.54 ± 0.39 | 2.89 ± 0.7 | – | –

Row | Sequence | protein stability index [1] | protein stability index [2] | protein stability index [3] | protein stability index [4]
47 | RFPGRKQPGVHEEPVLKKWPKLKS [C22orf31] | 3.72 ± 0.49 | 3.57 ± 0.15 | – | –
48 | HPLHPRHRKAVHLRTRGRTRGWVQ [C6orf223] | 3.15 ± 0.23 | 3.05 ± 0.49 | – | –
49 | RTHINAVVAKIQAKIPGAKRHAE [RTN1] | – | – | 2.74 ± 0.25 | 3.04 ± 0.36
50 | FEFDETSFWNSSHPRGWNDHVHIL [KLHDC2] | 2.37 ± 0.64 | 2.18 ± 0.28 | – | –
51 | VKDALFCSCLSDILRFIYSGAFQW [RHOBTB3] | 2.79 ± 0.36 | 3.31 ± 0.48 | – | –
52 | DWVPVESLLRPLNSLAALDLSGIQ [ZER1] | 2.42 ± 0.61 | 2.41 ± 0.49 | – | –
53 | PLEYQFKSQIMSLSHSPQEDWVLL [TLE6] | 2.26 ± 0.29 | 2.37 ± 0.4 | – | –
54 | TKKGDLQWNAGEKKLTGGANWQPK [SNAP91] | 4.07 ± 0.13 | 4.26 ± 0.23 | – | –
55 | YLNLDTWEWNELIPQGICPVGRSW [KLHDC2] | 2.79 ± 1.1 | 2.39 ± 0.42 | – | –
56 | VGSALHRESFTSRQKTSGPSVIQE [C10orf62] | 4.18 ± 0.15 | 4.46 ± 0.2 | – | –
57 | VQESQSERLQAAGTDSAGPKTVPS [ELOA2] | 5.29 ± 0.38 | 5.19 ± 0.35 | – | –
58 | PQQGFFSSFFTCNQKCQLRLLKTL [ATP23] | 2.36 ± 0.4 | 2.13 ± 0.3 | – | –
59 | VAFRGLKGKKLYPVVSAVWGHCEI [SPSB1] | 2.62 ± 0.13 | 3.16 ± 0.071 | – | –
60 | MSYHSGSVFSARDRDPNSLLISCA [TNXB] | 2.51 ± 0.2 | 2.44 ± 0.15 | – | –
61 | FLNFNGMKLFLDCLKEFPEKQELH [ZER1] | 2.29 ± 0.18 | 2.42 ± 0.18 | – | –
62 | LEQRGTHAVVGVATALAPLQTDHY [SPSB2] | 3.6 ± 0.31 | 3.65 ± 0.15 | – | –
63 | AHSAAVTASGDCYTFGSNQHGQLG [NEK8] | 3.81 ± 0.2 | 3.94 ± 0.35 | – | –
64 | WSQQIEESTTVVTTQSAEVGAAET [KRT18] | 5.5 ± 0.21 | 5.42 ± 0.14 | – | –
65 | KASGRFGLLQGTSAETSGGLLICL [SEPHS2] | 2.53 ± 0.83 | 2.41 ± 0.69 | – | –
66 | NDDYYEESYFTTRTYGEPESAGPS [EMD] | 4.84 ± 0.17 | 4.72 ± 0.17 | – | –
67 | FPACRVSVTGLDPEARYLFLLDVI [TBX6] | 2.56 ± 0.53 | 2.09 ± 0.24 | – | –
68 | EVIVFGGCANNLLVHHRAAHSNEI [KLHDC2] | 2.13 ± 0.19 | 2.2 ± 0.26 | – | –
69 | SALEEAFRRFAVHGDARATGREMH [TPPP] | 3.22 ± 0.38 | 3.12 ± 0.12 | – | –

Row | Sequence | protein stability index [1] | protein stability index [2] | protein stability index [3] | protein stability index [4]
70 | EHDRETRMQYAPDLMKRLRFALIP [KLHL14] | 2.77 ± 0.26 | 2.56 ± 0.16 | – | –
71 | ASYVVFRIIYMLLITIATFQIAAN [SLC19A2] | 3.09 ± 0.94 | 3.19 ± 0.18 | – | –
72 | GELSPEQPSFEPTKNKELTDEFRE [FADS1] | 5.52 ± 0.33 | 5.38 ± 0.18 | – | –
73 | KFNGITEKEYKTYKENFLKRFQLT [USP39] | 3.59 ± 0.12 | 3.86 ± 0.15 | – | –
74 | ASAIKKEELVARSETHAAGHSQEK [CHGB] | 5.4 ± 0.43 | 5.37 ± 0.31 | – | –
75 | NFIVNDSRKKPIWNVLMWTSLFLG [SOAT1] | 2.08 ± 0.14 | 2.2 ± 0.45 | – | –
76 | DLSRLVNCLTGEGEDTRLSASEMK [CIB1] | 3.5 ± 0.38 | 3.86 ± 0.28 | – | –
77 | SRRDESYSRGYRNRRSSRETREYA [RBMY1A1] | 4.5 ± 0.32 | 4.64 ± 0.31 | – | –
78 | PGAFIAGVPVQPVLIRYPNSLDTT [LPCAT4] | 2.72 ± 0.19 | 2.75 ± 0.36 | – | –
79 | NCMAEKRETVLIETQLKACASFIR [C8orf76] | 2.23 ± 0.32 | 2.25 ± 0.45 | – | –
80 | DRDKRDFVSAGAAAGVAAAFGAPI [CLCN6] | 4.12 ± 0.096 | 4.24 ± 0.19 | – | –
81 | ENFEDVGHSTDAREMSKTFIIGEL [CYB5A] | 3.95 ± 0.4 | 3.89 ± 0.29 | – | –
82 | LWDTSGQGRFCTIFRSYSRGAQGI [RAB40C] | 2.39 ± 0.41 | 2.31 ± 0.37 | – | –
83 | IGREGAKDSYDFFTEIKTITVKH [ALDH8A1] | – | – | 2.35 ± 0.43 | 2.42 ± 0.25
84 | YEEGMYADWWQEPDAKGDEAEAEP [P3H4] | 5.49 ± 0.17 | 5.37 ± 0.22 | – | –
85 | EQMKVYKCEHCRVLFLDHVMYTIH [IKZF1] | 2.37 ± 0.34 | 2.23 ± 0.41 | – | –
86 | HELLLGSLQQQHQADLELIESAHR [FBF1] | 4.66 ± 0.24 | 4.35 ± 0.21 | – | –
87 | YQLCRVQECPPDGRSFREEQCVSF [ADAMTSL2] | 2.92 ± 0.65 | 2.97 ± 0.32 | – | –
88 | AQEEEEEDQGRTRKRKQSGHSPAR [DDIT3] | 5.47 ± 0.31 | 5.7 ± 0.24 | – | –
89 | GQRIRRGSIGVWHYICPRLGGIGF [SLC6A17] | 2.23 ± 0.27 | 2.42 ± 0.2 | – | –

Reference: the supplement of paper PMC10567573
